Consider 3 molecules from article PMC7407982, “Troponin Aptamer on an Atomically Flat Au Nanoplate Platform for Detection of Cardiac Troponin I”.

The target in one data set is troponin complex (UniProt P19429+P63316+P45379). The note with it: 3'-(CH2)6-SH thiol; SERS sandwich: 300 mM NaCl, 20 mM Tris-HCl, 0.5 mM beta-mercaptoethanol, 20% (w/v) glycerol, 0.05% Tween 20, pH 8.0 (or with 20% human serum), 35 °C, 6 h, then …; cited from earlier work.
In data set [1] the target is cardiac troponin I (cTnI) (UniProt P19429 2-210). As to the kind of experiment: SERS sandwich on Au nanoplate; AFM; sandwich with reporter N2; detected from 100 aM in buffer, 100 fM in 20% human serum; AFM capture at 10 pM; SERS sandwich: 300 mM NaCl, 20 mM Tris-HCl, 0.5 mM beta-mercaptoethanol, 20% (w/v) glycerol, 0.05% Tween 20, pH 8.0 (or with 20% human serum), 35 °C, 6 h, then.

The Kd is the equilibrium constant for the complex coming apart. In the case of “CGCATGCCAAACGTTGCCTCATAGTTCCCTCCCCGTGTCC [Probe aptamer]”, the dissociation constant (Kd) with troponin complex was 3.37 nM. For the molecule “CGTGCAGTACGCCAACCTTTCTCATGCGCTGCCCCTCTTA [Reporter aptamer]”, the dissociation constant Kd with troponin complex is 3.1 nM. For the molecule CGCATGCCAAACGTTGCCTCATAGTTCCCTCCCCGTGTCC (ssDNA, 3'-(CH2)6-SH thiol) [Probe aptamer], in data set [1], the binding result is recorded as “binds”.
